# According to the DeepSol protein solubility set:
# Test: soluble on expression in E. coli; label from the status in PepcDB or PDB records
row,Sequence,soluble on expression in E. coli
1,MLEELTLERFLSHRSAFSLVIDVRSPHEYLESHLPGALNLPVLSDLEHERVGTLYKESPFEARILGASLICANIASALSWLKDSLHPSQKVLIYCARGGQRSLSLALILSSIGYQIARLIGGYKGYRAHVAASWQVPRKESFLTLVGPTGGGKSELIQSLSWSLDIEGLARHKGSSFGAIEGEQPSTKMFQNLLFERLLGLREEPLVAVEGESKRLGNLILPSPLYERYKSAPKVFIDSPLEARIDRTMQEYASISPAFFEGAMQKIARYMNKEAHKAASLAFWQGDLRRCAELLLVEYYDKVYKMEPCEYTILHTSKESTLKELERIKGEILSSVRE,not soluble
2,MLEFETNIDGLASIKVIGVGGGGNNAVNRMIENEVQGVEYIAVNTDAQALNLSKAEVKMQIGAKLTRGLGAGANPEVGKKAAEESKEQIEEALKGADMVFVTAGMGGGTGTGAAPVIAQIAKDLGALTVGVVTRPFTFEGRKRQLQAAGGISAMKEAVDTLIVIPNDRILEIVDKNTPMLEAFREADNVLRQGVQGISDLIATPGLINLDFADVKTIMSNKGSALMGIGIATGENRAAEAAKKAISSPLLEAAIDGAQGVLMNITGGTNLSLYEVQEAADIVASASDQDVNMIFGSVINENLKDEIVVTVIATGFIEQEKDVTKPQRPSLNQSIKTHNQSVPKRDAKREEPQQQNTVSRHTSQPADDTLDIPTFLRNRNKRG,soluble
3,MLELLYTALLYLIQPLIWIRLWVRGRKAPAYRKRWGERYGFYRHPLKPGGIMLHSVSVGETLAAIPLVRALRHRYPDLPITVTTMTPTGSERVQSAFGKDVQHVYLPYDLPDALNRFLNKVDPKLVLIMETELWPNLIAALHKRKIPLVIANARLSARSAAGYAKLGKFVRRLLRRITLIAAQNEEDGARFVALGAKNNQVTVTGSLKFDISVTPQLAAKAVTLRRQWAPHRPVWIATSTHEGEESVVIAAHQALLQQFPNLLLILVPRHPERFPDAINLVRQAGLSYITRSSGEVPSTSTQVVVGDTMGELMLLYGIADLAFVGGSLVERGGHNPLEAAAHAIPVLMGPHTFNFKDICARLEQASGLITVTDATTLAKEVSSLLTDADYRSFYGRHAVEVLYQNQGALQRLLQLLEPYLPPKTHLEHHHHHH,soluble
4,MLELNFSQTLGTHCLTLNETLPASGITAIFGVSGAGKTSLINAISGLTRPQKGRIALNGRVLHDAENGICLTPEKRRIGYVFQDARLFPHYKVRGNLRYGMAKSMTGQFDKLVSLLGIEALLDRLPGSLSGGEKQRVAIGRALLTAPELLLLDEPLASLDIPRKRELLPYLQRLAREINIPMLYVSHSLDEILHLADKVMVLEDGQVKAFGPLEEVWGSSVMHPWLPKEQQSSILKVSVLEHHPHYAMTALALGDQHLWVNKLNQPLQSTLRIRIQASDVSLVLQPPQQTSIRNVLRAKVANCYDDNGQVEVQLEIGGRTLWARISPWARDELNIKPGLWLYAQVKSVSITA,not soluble
5,MLELVQKGITPEDAITAGKKARKYFELTYYVMPGLGGRERSEQHAVNTARVINKAQPTFVRLRTLTVIEGTPIEKLVGKEITLLGPVEQLEEVRRLVEEIKVETLLLSDHVSNYLFTRSGPIFFGVSGKLPDEKEQMLEQVDDAIKTVKLLEESGERVFNSNDMYRMGLIGL,not soluble
6,MLERQQDSFRFICRTCPFYYQVEGKMERKVFGLQKKQEADILGGDKQWELADQTDTLCPRCSHGKAYFFQMQTRSADEPMSTFYRCVHCGHQWKEN,soluble
7,MLETRATTAKQLVQAPEQPAPQPEVAPPTTEQPAPAPAPGTTPGTENFNTPNATPETTEPRVLVSEVLVRPQSGQLTPELETQVYNVIRTQPGRTTTRSQLQEDINAIFGTGFFSNVQASPEDTPLGVRVSFIVQPNPVLSKVEIQANPGTNVPSVLPQATADEIFRAQYGKILNLRDLQEGIKELTKRYQDQGYVLANVVGAPQVSENGVVTLQVAEGVVENISVRFRNKEGQDVNEQGQPIRGRTQDYIITREVELKPGQVFNRNTVQKDLQRVFGTGLFEDVNVSLDPGTDPTKVNVVVNVVERSLEHHHHHH,soluble
8,MLFGQSVFQSVVERLKQEKEEEGTEPSPPAGHRIAGFSSGFVVDTHIEAPQPANGNLDAYLAFLADPAPPPESQTEPEPEPMPAHLEKTALADVSAELAIQETDTVATLAEKRRAFARLNHPDRVKPQFRHNATLRMTAANLLIDQALRMLRTREHFR,not soluble
9,MLFNLLGKPLKICGCSPRTGWYLDGYCKTDQSDLGNHSICSVVTDTFLKYTKSQGNNLIDPNLLMEFPGLKAGDHWCLCAERWEQARIDGVAPPIIIESTNLSATQVIPLNILKSFAFEII,not soluble
